{
  "source": "IntAct's records for PubMed 17721515",
  "parents": {"B1": {"name": "Focal adhesion kinase 1 (Gallus gallus (Chicken)), Q00944 (parent)", "chain": "MAAAYLDPNLNHTPSSSAKTHLGTGMERSPGAMERVLKVFHYFENSSEPTTWASIIRHGDATDVRGIIQKIVDCHKVKNVACYGLRLSHLQSEEVHWLHLDMGVSNVREKFELAHPPEEWKYELRIRYLPKGFLNQFTEDKPTLNFFYQQVKNDYMLEIADQVDQEIALKLGCLEIRRSYGEMRGNALEKKSNYEVLEKDVGLRRFFPKSLLDSVKAKTLRKLIQQTFRQFANLNREESILKFFEILSPVYRFDKECFKCALGSSWIISVELAIGPEEGISYLTDKGANPTHLADFNQVQTIQYSNSEDKDRKGMLQLKIAGAPEPLTVTAPSLTIAENMADLIDGYCRLVNGATQSFIIRPQKEGERALPSIPKLANNEKQGVRSHTVSVSETDDYAEIIDEEDTYTMPSTRDYEIQRERIELGRCIGEGQFGDVHQGIYMSPENPAMAVAIKTCKNCTSDSVREKFLQEALTMRQFDHPHIVKLIGVITENPVWIIMELCTLGELRSFLQVRKFSLDLASLILYAYQLSTALAYLESKRFVHRDIAARNVLVSATDCVKLGDFGLSRYMEDSTYYKASKGKLPIKWMAPESINFRRFTSASDVWMFGVCMWEILMHGVKPFQGVKNNDVIGRIENGERLPMPPNCPPTLYSLMTKCWAYDPSRRPRFTELKAQLSTILEEEKLQQEERMRMESRRQVTVSWDSGGSDEAPPKPSRPGYPSPRSSEGFYPSPQHMVQPNHYQVSGYSGSHGIPAMAGSIYPGQASLLDQTDSWNHRPQEVSAWQPNMEDSGTLDVRGMGQVLPTHLMEERLIRQQQEMEEDQRWLEKEERFLVMKPDVRLSRGSIEREDGGLQGPAGNQHIYQPVGKPDHAAPPKKPPRPGAPHLGSLASLNSPVDSYNEGVKIKPQEISPPPTANLDRSNDKVYENVTGLVKAVIEMSSKIQPAPPEEYVPMVKEVGLALRTLLATVDESLPVLPASTHREIEMAQKLLNSDLAELINKMKLAQQYVMTSLQQEYKKQMLTAAHALAVDAKNLLDVIDQARLKMISQSRPH"}},
  "data": [
    {"variants_of": "B1", "details": "with arp3_bovin ACTR3, P61157", "values": [
      {"variant": "Y397F", "effect of a mutation on the interaction": "increasing interaction"}
    ]}
  ]
}
